In publication doi:10.1101/2020.09.08.280818 one finds Kd and stoichiometry N data, which are given here for one substance.

Assay [1] deals with human ACE2 peptidase domain (PD), Avi-tagged (human). Briefly: BLI. On the technique in general: BLI is a label-free optical method that tracks binding on a fibre tip over time.
Assay [2] has as its target SARS-CoV-2 spike glycoprotein stabilised in the prefusion conformation (P2 S), TwinStrep-tagged (SARS-CoV-2) (UniProt P0DTC2). Briefly: cryo-EM structure.

As usually defined, the Kd is the concentration at which binding is half-saturated. Low values mean tighter binding, high ones weaker binding. As usually defined, the stoichiometry N is a count of units in the complex or per binding partner. For the substance “SARS-CoV-2 spike glycoprotein stabilised in the prefusion conformation (P2 S), TwinStrep-tagged (from UniProt P0DTC2 14-1273) (natural protein)”, in assay [1], the Kd was found to be 1 nM. The stoichiometry N in assay [2] is 3.
